T1: mouse TNFR2 (extracellular domain) (mouse, UniProt P25119 23-258)
T1 construct: also called mTNFR2
T1 sequence: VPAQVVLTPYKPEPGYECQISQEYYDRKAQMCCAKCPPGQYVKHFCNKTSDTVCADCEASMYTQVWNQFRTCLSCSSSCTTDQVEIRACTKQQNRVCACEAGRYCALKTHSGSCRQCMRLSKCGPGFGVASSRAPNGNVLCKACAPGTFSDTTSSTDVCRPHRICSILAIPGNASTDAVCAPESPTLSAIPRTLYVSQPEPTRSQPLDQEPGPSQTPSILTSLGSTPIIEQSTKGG

T2: human TNFR2 (extracellular domain) (human, UniProt P20333 23-257)
T2 construct: also called hTNFR2; human tumor necrosis factor receptor 2
T2 sequence: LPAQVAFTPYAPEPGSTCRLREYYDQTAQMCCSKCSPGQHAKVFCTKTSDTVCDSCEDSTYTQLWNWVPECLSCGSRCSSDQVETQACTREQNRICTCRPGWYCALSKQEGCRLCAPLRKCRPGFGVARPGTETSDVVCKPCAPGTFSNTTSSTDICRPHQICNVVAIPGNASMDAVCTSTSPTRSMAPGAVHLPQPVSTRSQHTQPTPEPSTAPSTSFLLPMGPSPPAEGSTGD


How the values were obtained:
[1] = molecular target: T1, mouse TNFR2 (extracellular domain); test: SPR (Carterra LSA), V-body coupled to HC200M chip, TNFR2 extracellular domain in solution
Method: (§1) Binding affinities of the V-bodies to their respective target was determined by surface plasmon resonance (SPR) using a Caterra LSA instrument. Affinity purified V-bodies were covalently crosslinked onto an LSA HC200M chip using EDC/Sulfo NHS. The interaction with human, cynomolgus, and mouse TNFR2 (extracellular domain) (V-body coupling concentration: human, […]; cynomolgus/mouse, 4 μM) was measured under physiological conditions (Running Buffer: HBST-50 mM HEPES pH 7.4, 150 mM NaCl, 0.1% (w/v) BSA, 0.05% (v/v) Tween20, 25° C.) using eight different antigen concentrations (3-fold serial dilutions, start at 200 nM). Resulting sensorgrams (FIGS. 9A-9F) were analyzed and equilibrium-binding affinities (KDs) were calculated using Carterra's data analysis software.

[2] = molecular target: T2, human TNFR2 (extracellular domain); test: SPR (Carterra LSA), V-body coupled to HC200M chip, TNFR2 extracellular domain in solution, 8 concentrations from 200 nM
Method: as §1

binding result [2]	Binder	binding result [1]
binds	ODY-37C7 (VHH) VHH: EVQLVESGGGLVQPGGSLRLSCAASGFTFDDIAMTWVRQAPGKGLEWVSSIYSYGPNTYYADSVKGRFTISTDSAKNTLYLQMNSLKPEDTAVYYCAADSDLSTVVVGPHDYWGQGTQVTVSS	no binding (tested: 200 nM (highest antigen concentration))
binds	ODY-33D4 (VHH) VHH: EVQLVESGGGLVQAGGSLRLSCAASGRTFSDYGMGWFRQAPGKDSEFVAAINWSNGRTNYADSVKGRFTISRDNAKNTGYLEMNSLKVEDTAVYYCAATPSGKAYSYWGQGTQVTVSS	no binding (tested: 200 nM (highest antigen concentration))

Further lines, the binder ahead of its results:

Binder	binding result [2]	binding result [1]
ODY-31D6 (VHH) VHH: EVQLVESGGGLVQAGGSLRLSCAASGSIVSTNGMGWHRQVPGKGRELVAGIRSDGFTNYADSVKGRFTISSDNVKNTVYLQMNSLKAEDSGVYFCYYQALSSPNYGQTFWGQGTQVTVSS	binds	no binding (tested: 200 nM (highest antigen concentration))
ODY-35A10 (VHH) VHH: EVQLVESGGGLVEAGGSLRLSCAASGRTFGSYTMGWFRQAPGREQEFLASIRRTGGSTSYADSVKGRFTISRDNAKKAVYLQMNSLKPEDTAVYYCAAAPTGRAFTYWGQGTQVTVSS	binds	no binding (tested: 200 nM (highest antigen concentration))
ODY-31G3 (VHH) VHH: EVQLVESGGGLVQAGGSLRVSCAASGSIFRADAMGWHRQVPGKPREFVAGIRSDGFTNYAEAVKGRFTISWDTVKNTVYLQMNSLKPEDTAVYTCYYQSLSSPNYGQVFWGQGTQVTVSS	binds	no binding (tested: 200 nM (highest antigen concentration))
